{
  "source": "paper PMC5755706",
  "about": "(Nature structural & molecular biology, 2017)",
  "molecules": {"B1": {"name": "human TRF1^TRFH (TRF homology domain of TRF1, aa 62-265) (domain or fragment)", "chain": "EDAGLVAEAEAVAAGWMLDFLCLSLCRAFRDGRSEDFRRTRNSAEAIIHGLSSLTACQLRTIYICQFLTRIAAGKTLDAQFENDERITPLESALMIWGSIEKEHDKLHEEIQNLIKIQAIAVCMENGNFKEAEEVFERIFGDPNSHMPFKSKLLMIISQKDTFHSFFQHFSYNHMMEKIKSYVNYVLSEKSSTFLMKAAAKVVE", "modifications": "biotin (biotin maleimide) on cysteines in the flow-cytometry bead assays; unlabelled in the pull-downs and the crystal"}, "B2": {"name": "TERB1^TRFB - TERB2^1-107 complex WT (complex)", "chain 1": "QNLHEETTFEKNFVSQSSDHVFKHPVHIAKNIKQQLPVTDPFTLCSDIINKEVVSFLATPSCSEMLTYRCSGCIAVEKSLNSRNFSKLLHSCPYQCDRHKVIVEAEDRYKSELRKSLICNKKILLTPRRRQRLS", "chain 2": "MFQGQRGWFCGSVSQDLRQFWVAEGGTISDPRAADFLFSCDASHPDTLRIYQSLDYIEDNATVFHAYYLSAVANAKIKNSVALGHFILPPACLQKEIRRKIGSFIWE"}, "B3": {"name": "TERB1^TRFB - TERB2^1-107 I645E (complex)", "chain 1": "QNLHEETTFEKNFVSQSSDHVFKHPVHIAKNIKQQLPVTDPFTLCSDIINKEVVSFLATPSCSEMLTYRCSGCIAVEKSLNSRNFSKLLHSCPYQCDRHKVIVEAEDRYKSELRKSLICNKKELLTPRRRQRLS", "chain 2": "MFQGQRGWFCGSVSQDLRQFWVAEGGTISDPRAADFLFSCDASHPDTLRIYQSLDYIEDNATVFHAYYLSAVANAKIKNSVALGHFILPPACLQKEIRRKIGSFIWE"}, "B4": {"name": "TERB1^TRFB - TERB2^1-107 I645F (complex)", "chain 1": "QNLHEETTFEKNFVSQSSDHVFKHPVHIAKNIKQQLPVTDPFTLCSDIINKEVVSFLATPSCSEMLTYRCSGCIAVEKSLNSRNFSKLLHSCPYQCDRHKVIVEAEDRYKSELRKSLICNKKFLLTPRRRQRLS", "chain 2": "MFQGQRGWFCGSVSQDLRQFWVAEGGTISDPRAADFLFSCDASHPDTLRIYQSLDYIEDNATVFHAYYLSAVANAKIKNSVALGHFILPPACLQKEIRRKIGSFIWE"}},
  "key": {"human TRF2^TRFH (human)": {"target": "human TRF2^TRFH (human) (UniProt Q15554)", "sequence (Q15554 whole entry)": "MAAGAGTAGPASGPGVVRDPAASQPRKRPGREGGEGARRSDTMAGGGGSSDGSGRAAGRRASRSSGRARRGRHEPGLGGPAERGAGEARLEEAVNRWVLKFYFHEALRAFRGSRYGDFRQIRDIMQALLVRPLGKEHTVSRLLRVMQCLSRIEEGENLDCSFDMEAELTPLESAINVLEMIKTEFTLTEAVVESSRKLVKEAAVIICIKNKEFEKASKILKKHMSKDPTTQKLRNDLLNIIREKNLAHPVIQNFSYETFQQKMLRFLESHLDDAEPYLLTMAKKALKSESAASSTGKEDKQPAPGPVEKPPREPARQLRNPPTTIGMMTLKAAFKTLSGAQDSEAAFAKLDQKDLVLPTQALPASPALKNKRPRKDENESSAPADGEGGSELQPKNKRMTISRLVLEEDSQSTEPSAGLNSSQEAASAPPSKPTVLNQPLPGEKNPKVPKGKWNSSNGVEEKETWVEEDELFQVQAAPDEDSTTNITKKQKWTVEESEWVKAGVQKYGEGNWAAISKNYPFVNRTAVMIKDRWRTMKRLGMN", "assay": "flow cytometry protein interaction assay"}, "GST-TRF1^TRFH": {"target": "T1, GST-TRF1^TRFH (human, UniProt P54274 62-265)", "T1 sequence": "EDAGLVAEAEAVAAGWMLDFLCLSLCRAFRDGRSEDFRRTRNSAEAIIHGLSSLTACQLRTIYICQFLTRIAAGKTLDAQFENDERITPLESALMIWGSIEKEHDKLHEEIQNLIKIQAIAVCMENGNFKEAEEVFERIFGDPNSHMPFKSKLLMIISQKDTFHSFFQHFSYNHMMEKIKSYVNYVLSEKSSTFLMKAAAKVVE", "assay": "pull-down"}, "crystal structure": {"target": "the molecule itself", "assay": "crystal structure"}, "[1]": {"target": "T2, MBP-tagged TERB1^TRFB – TERB2^1-107 (human, UniProt Q8NA31;Q8NHR7)", "T2 sequence 1": "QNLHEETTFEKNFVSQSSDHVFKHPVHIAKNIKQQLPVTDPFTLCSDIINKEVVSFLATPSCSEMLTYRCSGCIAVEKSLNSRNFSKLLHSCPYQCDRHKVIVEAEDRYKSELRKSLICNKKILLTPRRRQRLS", "T2 sequence 2": "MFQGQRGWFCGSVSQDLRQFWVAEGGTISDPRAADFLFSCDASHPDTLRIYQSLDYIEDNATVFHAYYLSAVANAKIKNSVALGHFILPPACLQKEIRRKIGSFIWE", "assay": "pull-down"}},
  "data": [
    {"molecule": "His-Smt3-TERB1^TBM R652E (from UniProt Q8NA31 643-656) (peptide)", "values": [
      {"measurement": "relative IC50 (normalized to TERB1^TBM WT)", "setting": "human TRF2^TRFH (human)", "result": 1.05}
    ]},
    {"molecule": "His-Smt3-TERB1^TBM I645E (from UniProt Q8NA31 643-656) (peptide)", "values": [
      {"measurement": "relative IC50 (normalized to TERB1^TBM WT)", "setting": "human TRF2^TRFH (human)", "result": 2.25}
    ]},
    {"molecule": "His-Smt3-TERB1^TBM T648A (from UniProt Q8NA31 643-656) (peptide)", "values": [
      {"measurement": "relative IC50 (normalized to TERB1^TBM WT)", "setting": "human TRF2^TRFH (human)", "result": 0.4}
    ]},
    {"molecule": "His-Smt3-TERB1^TBM WT (from UniProt Q8NA31 643-656) (peptide)", "values": [
      {"measurement": "relative IC50 (normalized to TERB1^TBM WT)", "setting": "human TRF2^TRFH (human)", "result": 1}
    ]},
    {"molecule": "His-Smt3-TERB1^TBM I645F (from UniProt Q8NA31 643-656) (peptide)", "values": [
      {"measurement": "relative IC50 (normalized to TERB1^TBM WT)", "setting": "human TRF2^TRFH (human)", "result": 2.6}
    ]},
    {"molecule": "KKILLTPRRRQRLS", "note": "[His-Smt3-TERB1^TBM WT]", "values": [
      {"measurement": "binding result", "setting": "GST-TRF1^TRFH", "result": "binds"}
    ]},
    {"molecule": "KKFLLTPRRRQRLS", "note": "[His-Smt3-TERB1^TBM I645F]", "values": [
      {"measurement": "binding result", "setting": "GST-TRF1^TRFH", "result": "binds"}
    ]},
    {"molecule": "B1", "values": [
      {"measurement": "stoichiometry N", "setting": "crystal structure", "result": 2},
      {"measurement": "binding result", "setting": "[1]", "result": "binds"}
    ]},
    {"molecule": "B2", "values": [
      {"measurement": "relative IC50 (normalized to TERB1^TRFB - TERB2^1-107 WT)", "setting": "human TRF2^TRFH (human)", "result": 1}
    ]},
    {"molecule": "B3", "values": [
      {"measurement": "relative IC50 (normalized to TERB1^TRFB - TERB2^1-107 WT)", "setting": "human TRF2^TRFH (human)", "result": 0.4}
    ]},
    {"molecule": "B4", "values": [
      {"measurement": "relative IC50 (normalized to TERB1^TRFB - TERB2^1-107 WT)", "setting": "human TRF2^TRFH (human)", "result": 0.8}
    ]}
  ]
}
